Results: article PMC7406681, “Structural characterization of the C-terminal domain of SARS-CoV-2 nucleocapsid protein”

Assays:
[1] = target: T1, SARS-CoV-2 nucleocapsid C-terminal domain (N-CTD) (SARS-CoV-2 (Wuhan-Hu-1), UniProt P0DTC9 248-364); test: EMSA; conditions: protein: recombinant; tags: N-terminal His6 removed by TEV; residual Gly-Ala-Ser at N-terminus; chain copies: 2
[2] = target: T1, SARS-CoV-2 nucleocapsid C-terminal …; test: EMSA; N-CTD:DNA molar ratios 2:1 to 10:1; conditions: protein: recombinant, tags: N-terminal His6 removed by TEV, residual Gly-Ala-Ser at N-terminus, chain copies: 2

B1: 17-mer ssRNA (5' UTR SL3/TRS) (ssRNA)
RNA: UGUUCUCUAAACGAACU
[1]
  binding result: binds

B2: 17-bp dsDNA (DNA mimic of SL3/TRS RNA) (dsDNA)
DNA 1: TGTTCTCTAAACGAACT
DNA 2: AGTTCGTTTAGAGAACA
[2]; blunt
  binding result: binds

B3: 17-mer ssDNA (DNA mimic of SL3/TRS RNA) (ssDNA)
DNA: TGTTCTCTAAACGAACT
[2]
  binding result: binds
